Source: the supplement of paper PMC7877785
± gives the uncertainty stated by the source.

Assay: self-splicing fitness, log relative to wild type (ln ratio); higher = more splicing; Tetrahymena group I intron in knt gene, E. coli kanamycin selection, DiMSum; sequences stand for … in CUCUCU…GGAGGGAAAAGUUAUCAGGCAUGCACCUGGUAGCUAGUCUUUAAACCAAUAGAUUGCAUCGGUUUAAAAGGCAAGACCGUCAAAUUGCGGGAAAGGGGUCAACAGCCGUUCAGUACCAAGUCUCAGGGGAAACUUUGAGAUGGCCUUGCAAAGGGUAUGGUAAUAAGCUGACGGACAUGGUCCUAACCACGCAGCCAAGUCCUAAGUCAACAGAUCUUCUGUUGAUAUGGAUGCAGUUCACAGACUAAAUGUCGGUCGGGGAAGAUGUAUUCUUCUCAUAAGAUAUAGUCGGACCUCUCCUUAAUGGGAGCUAGCGGAUGAAGUGAUGCAACACUGGAGCCGCUGGGAACUAAUUUGUAUGCGAAAGUAUAUUGAUUAGUUUUGGAGUACUCGUGGUCG
Outline: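 Library with all eight P1ex-region intron nucleotides randomised, intron inside the knt kanamycin-resistance gene on pET-22b(+), in E. coli BL21(DE3). Cells grew overnight at 37°C or 30°C on LB agar with or without 25 μg/mL kanamycin (plus 100 μg/mL carbenicillin, 50 μM IPTG, 0.2% rhamnose), in six replicate transformations. Pooled colonies were amplicon-sequenced on Illumina HiSeq 2500. DiMSum fitness is the error-weighted combination of wild-type-normalised replicate fold changes, kanamycin versus none.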

Sequence | self-splicing fitness (ln) (30 °C) | self-splicing fitness (ln) (37 °C)
GAUCAGCAAUAUUACGACCA | -1.08 ± 0.092 | 0.352 ± 0.15
ACCGAGCAAUAUUACGUCAG | -3.7 ± 0.16 | -2.73 ± 0.17
AGGAAGCAAUAUUACGCGAU | -3.28 ± 0.28 | -2.11 ± 0.25
AAAAAGCAAUAUUACGUGAG | -0.91 ± 0.056 | -0.523 ± 0.092
CAAUAGCAAUAUUACGUAAC | -3.94 ± 0.35 | -3.27 ± 0.43
CGGCAGCAAUAUUACGAGGC | -2.99 ± 0.32 | -2.53 ± 0.49
GCGAAGCAAUAUUACGAAGG | -0.597 ± 0.23 | -0.295 ± 0.3
AUGGAGCAAUAUUACGGCGC | -2.45 ± 0.34 | -0.677 ± 0.41
CGCUAGCAAUAUUACGUCAU | -3.97 ± 0.35 | -1.25 ± 0.19
CGUAAGCAAUAUUACGUCGU | -3.41 ± 0.16 | -1.63 ± 0.15
CGCGAGCAAUAUUACGGAAG | -1.78 ± 0.17 | -2.32 ± 0.2
CCGCAGCAAUAUUACGGACG | -2.13 ± 0.1 | -0.204 ± 0.11
CAGGAGCAAUAUUACGUUGC | – | -2.26 ± 0.28
GGCCAGCAAUAUUACGCAUU | -0.554 ± 0.05 | 0.109 ± 0.067
UGGAAGCAAUAUUACGAGUA | -1.94 ± 0.22 | -1.13 ± 0.17
CUACAGCAAUAUUACGGGAG | -2.62 ± 0.11 | -1.96 ± 0.12
GCGAAGCAAUAUUACGCGGC | -3.23 ± 0.22 | -2.35 ± 0.25
AAAGAGCAAUAUUACGCCUG | -2.57 ± 0.28 | -1.76 ± 0.33
AUCUAGCAAUAUUACGGGAG | -0.833 ± 0.076 | -0.293 ± 0.092
CCCUAGCAAUAUUACGAAUG | -4.25 ± 0.46 | –
GCACAGCAAUAUUACGUCUA | -0.8 ± 0.06 | -0.367 ± 0.063
GGCUAGCAAUAUUACGCCAG | -1.55 ± 0.23 | –
ACUAAGCAAUAUUACGACCU | -0.123 ± 0.081 | 0.342 ± 0.1
GUGUAGCAAUAUUACGAGCU | -2.36 ± 0.17 | -0.678 ± 0.21
GGUCAGCAAUAUUACGUUAA | -1.4 ± 0.099 | -0.249 ± 0.088
GGUCAGCAAUAUUACGGAGA | – | -1.69 ± 0.28
AUGGAGCAAUAUUACGGCGU | 0.125 ± 0.14 | 0.224 ± 0.14

Sequence | self-splicing fitness (ln) (30 °C) | self-splicing fitness (ln) (37 °C)
AAGCAGCAAUAUUACGUAUG | -4.5 ± 0.26 | -2.63 ± 0.17
AUGGAGCAAUAUUACGCCGC | -1.29 ± 0.44 | –
AGGAAGCAAUAUUACGCAGG | -3.16 ± 0.25 | -2.21 ± 0.3
CUCCAGCAAUAUUACGCGGG | -3.86 ± 0.24 | -1.82 ± 0.23
ACUAAGCAAUAUUACGUCGA | -1.04 ± 0.13 | -1.45 ± 0.12
CGGUAGCAAUAUUACGCCUC | -2.36 ± 0.38 | -0.282 ± 0.29
CAACAGCAAUAUUACGACUC | -1.74 ± 0.11 | -0.579 ± 0.12
UUUUAGCAAUAUUACGCUCA | -0.731 ± 0.29 | 0.849 ± 0.44
CGUGAGCAAUAUUACGCAUC | -1.85 ± 0.48 | -2.43 ± 0.35
CGAAAGCAAUAUUACGCCCA | -0.283 ± 0.12 | 0.0973 ± 0.15
CGGGAGCAAUAUUACGCACU | -2.4 ± 0.24 | -2.65 ± 0.25
ACCAAGCAAUAUUACGUGGC | -3.68 ± 0.18 | -2.94 ± 0.18
UGAAAGCAAUAUUACGCACG | -1.4 ± 0.11 | 0.111 ± 0.13
GACUAGCAAUAUUACGGUUU | -1.7 ± 0.092 | -1.53 ± 0.11
GCAGAGCAAUAUUACGGAAA | – | -2.15 ± 0.43
GCGGAGCAAUAUUACGCGAG | – | -2.39 ± 0.36
AGCAAGCAAUAUUACGAUGG | -2.63 ± 0.15 | -2.01 ± 0.2
CGCGAGCAAUAUUACGUAAU | -3.36 ± 0.27 | -3.23 ± 0.4
AUGUAGCAAUAUUACGUAAC | -2.96 ± 0.17 | -1.54 ± 0.16
CCGCAGCAAUAUUACGCUAA | -3.22 ± 0.22 | -2.55 ± 0.23
CAAGAGCAAUAUUACGCACU | -3.06 ± 0.33 | –
ACUAAGCAAUAUUACGGCAC | -0.673 ± 0.096 | -1.92 ± 0.095
GUAUAGCAAUAUUACGCACG | -1.99 ± 0.19 | -0.994 ± 0.3
GUAAAGCAAUAUUACGCUUC | -3.5 ± 0.23 | -1.97 ± 0.23
CGGAAGCAAUAUUACGAUUC | -3.95 ± 0.43 | -2.28 ± 0.45
GUAGAGCAAUAUUACGGUCU | -1.46 ± 0.1 | -0.783 ± 0.14
GCAAAGCAAUAUUACGAUUC | -1.26 ± 0.082 | -0.245 ± 0.1

Sequence | self-splicing fitness (ln) (30 °C) | self-splicing fitness (ln) (37 °C)
AGCGAGCAAUAUUACGUAUA | -3.86 ± 0.37 | -2.18 ± 0.29
CGUCAGCAAUAUUACGCAAG | -0.161 ± 0.07 | -0.63 ± 0.091
UAUGAGCAAUAUUACGAUUG | -1.94 ± 0.17 | -1.11 ± 0.2
UGCGAGCAAUAUUACGUAGC | -2.36 ± 0.27 | -2.05 ± 0.38
AACGAGCAAUAUUACGCCAA | -2.5 ± 0.19 | -3.1 ± 0.22
CCAAAGCAAUAUUACGUAAC | -4.73 ± 0.27 | -2.72 ± 0.28
CGGAAGCAAUAUUACGCAUU | -3.52 ± 0.3 | -2.98 ± 0.29
UCUGAGCAAUAUUACGGAAG | -4.27 ± 0.2 | -3.07 ± 0.23
AUCUAGCAAUAUUACGCCGG | – | -1.25 ± 0.34
GAUCAGCAAUAUUACGAAAA | -0.449 ± 0.2 | -0.691 ± 0.23
CACUAGCAAUAUUACGCUCA | -2.66 ± 0.21 | -2.08 ± 0.17
GUGUAGCAAUAUUACGGCAA | -0.687 ± 0.17 | -0.481 ± 0.23
CUCUAGCAAUAUUACGGGGC | -2.81 ± 0.27 | -2.64 ± 0.41
CAUCAGCAAUAUUACGACAA | -2.31 ± 0.24 | -1.41 ± 0.21
CCGAAGCAAUAUUACGGUAC | – | -1.85 ± 0.25
GCCAAGCAAUAUUACGUGUU | -0.889 ± 0.049 | -0.309 ± 0.06
UCUCAGCAAUAUUACGGGGC | -3.03 ± 0.23 | -3.85 ± 0.37
AGGCAGCAAUAUUACGUAGG | -2.04 ± 0.083 | -1.64 ± 0.12
ACGCAGCAAUAUUACGGGCG | -1.5 ± 0.063 | -1.3 ± 0.072
CGGCAGCAAUAUUACGGACU | -2.26 ± 0.17 | -1.34 ± 0.2
AAAAAGCAAUAUUACGCAGA | -2.35 ± 0.15 | -1.86 ± 0.14
GCGAAGCAAUAUUACGUAGG | -1.32 ± 0.092 | -1.43 ± 0.13
CUCAAGCAAUAUUACGAGGA | -1.9 ± 0.13 | -1.66 ± 0.13
UCACAGCAAUAUUACGUGGU | -4.05 ± 0.19 | -3.15 ± 0.18
UACCAGCAAUAUUACGUAGC | -2.38 ± 0.11 | -1.72 ± 0.14
